US20210079398A1

Columns and labels:
[1] = target: Spot-Tag peptide-oligonucleotide conjugate (Spot-Tag.O1); experiment: BCS binding assay on a sequencing chip (Cycle 1), NGS count of the nanobody barcode on foundation Spot-Tag.O1_BCS4_Fd19
[2] = target: Spot-Tag peptide-oligonucleotide conjugate (Spot-Tag.O1); experiment: BCS binding assay on a sequencing chip (Cycle 1), NGS count of the nanobody barcode on foundation Spot-Tag.O1_BCS4_Fd20
[3] = target: Spot-Tag peptide-oligonucleotide conjugate (Spot-Tag.O1); experiment: BCS binding assay on a sequencing chip (Cycle 1), NGS count of the nanobody barcode on foundation Spot-Tag.O1_BCS4_Fd27
[4] = target: Spot-Tag peptide-oligonucleotide conjugate (Spot-Tag.O1); experiment: BCS binding assay on a sequencing chip (Cycle 1), NGS count of the nanobody barcode on foundation Spot-Tag.O1_BCS4_Fd28
[5] = target: Spot-Tag peptide-oligonucleotide conjugate (Spot-Tag.O1); experiment: BCS binding assay on a sequencing chip (Cycle 1), NGS count of the nanobody barcode on foundation Spot-Tag.O1_BCS4_Fd29
[6] = target: Spot-Tag peptide-oligonucleotide conjugate (Spot-Tag.O1); experiment: BCS binding assay on a sequencing chip (Cycle 1), NGS count of the nanobody barcode on foundation Spot-Tag.O1_BCS4_Fd31
[7] = target: Bradykinin peptide-oligonucleotide conjugate (Brady.O1); experiment: BCS binding assay on a sequencing chip (Cycle 1), NGS count of the nanobody barcode on foundation Brady.O1_BCS4_Fd12 (non-specific peptide control)
[8] = target: Bradykinin peptide-oligonucleotide conjugate (Brady.O1); experiment: BCS binding assay on a sequencing chip (Cycle 1), NGS count of the nanobody barcode on foundation Brady.O1_BCS4_Fd13 (non-specific peptide control)
[9] = target: Bradykinin peptide-oligonucleotide conjugate (Brady.O1); experiment: BCS binding assay on a sequencing chip (Cycle 1), NGS count of the nanobody barcode on foundation Brady.O1_BCS4_Fd14 (non-specific peptide control)

## Spot-tag nanobody-oligo conjugate (VHH)
[1]
  sequencing counts of binder barcode ligated to target foundation: 6900 counts
[2]
  sequencing counts of binder barcode ligated to target foundation: 9650 counts
[3]
  sequencing counts of binder barcode ligated to target foundation: 3380 counts
[4]
  sequencing counts of binder barcode ligated to target foundation: 4880 counts
[5]
  sequencing counts of binder barcode ligated to target foundation: 10600 counts
[6]
  sequencing counts of binder barcode ligated to target foundation: 6160 counts
[7]
  sequencing counts of binder barcode ligated to target foundation: 40 counts
[8]
  sequencing counts of binder barcode ligated to target foundation: 1620 counts
[9]
  sequencing counts of binder barcode ligated to target foundation: 587 counts
